According to patent publication EP3529371B1:
Read-outs that look alike come from different tables or passages of the source.

How the values were obtained:
Experiment in all cases: cell-based or functional assay
[1] = biological target: H6tHA1V(2-94)-sfGFP-S (Bos taurus (Bovine)) (UniProt P63026)
[2] = biological target: H6tHAtev1S(146-206)LS D179KA199R (Photinus pyralis) (UniProt P60877)
[3] = biological target: H6tHA1S(146-206)-NL-S (Macaca mulatta (Rhesus macaque)) (UniProt P60877)
[4] = biological target: H6tHAtev1S(140-197)L (Photinus pyralis) (UniProt P60877)
[5] = biological target: H6tHA1S(146-206)-sfGFP-S (Macaca mulatta (Rhesus macaque)) (UniProt P60877)
[6] = biological target: H6tHAtev1S(146-206)LS D179KN196QQ197NR198K (Photinus pyralis) (UniProt P60877)
[7] = biological target: H6tHAtev1V(60-94)L (Photinus pyralis)
[8] = biological target: H6tHA1V(2-94)-sfGFP-S (Bos taurus (Bovine)) (UniProt P63026); remark: listed apart in the source

Chain of UniProt P63026 (P63026 2-94): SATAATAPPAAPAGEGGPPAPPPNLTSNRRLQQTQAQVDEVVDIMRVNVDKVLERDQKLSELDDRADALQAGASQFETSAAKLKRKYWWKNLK

BoNT/D (recombinant, activated full-length) (from UniProt P19321 2-1276) (enzyme)
EC50 of cleavage of generic substrate with reporter sfGFP, JDZ-buffer, 1 h 37°C [1]: 1 nM

BoNT/E1 (recombinant, activated full-length) (from UniProt Q00496 2-1251) (enzyme)
EC50 of substrate cleavage, endopeptidase assay, JDZ-buffer, 1 h 37°C [2]: 1000 nM | EC50 of cleavage of generic substrate with reporter NL, JDZ-buffer, 1 h 37°C [3]: 0.2 nM | EC50 of substrate cleavage, endopeptidase assay, JDZ-buffer, 1 h 37°C [4]: 0.2 nM | EC50 of cleavage of generic substrate with reporter sfGFP, JDZ-buffer, 1 h 37°C [5]: 0.1 nM | EC50 of substrate cleavage, endopeptidase assay, JDZ-buffer, 1 h 37°C [6]: 1000 nM

BoNT/A1 (recombinant, activated full-length) (from UniProt P0DPI1 2-1296) (enzyme)
EC50 of substrate cleavage, endopeptidase assay, JDZ-buffer, 1 h 37°C [2]: 0.4 nM | EC50 of cleavage of generic substrate with reporter NL, JDZ-buffer, 1 h 37°C [3]: 0.01 nM | EC50 of cleavage of generic substrate with reporter sfGFP, JDZ-buffer, 1 h 37°C [5]: 0.03 nM

BoNT/C (recombinant, activated full-length) (from UniProt P18640 2-1291) (enzyme)
EC50 of substrate cleavage, endopeptidase assay, JDZ-buffer, 1 h 37°C [2]: 200 nM | EC50 of cleavage of generic substrate with reporter NL, JDZ-buffer, 1 h 37°C [3]: 10 nM | EC50 of cleavage of generic substrate with reporter sfGFP, JDZ-buffer, 1 h 37°C [5]: 20 nM | EC50 of substrate cleavage, endopeptidase assay, JDZ-buffer, 1 h 37°C [6]: 0.6 nM | fold decrease of EC50 relative to generic H6tHAtev1S(146-206)LS [6]: 16 fold

BoNT/B1 (recombinant, activated full-length) (from UniProt B1INP5 2-1291) (enzyme)
EC50 of cleavage of generic substrate with reporter sfGFP, JDZ-buffer, 1 h 37°C [1]: 0.02 nM | EC50 of substrate cleavage, endopeptidase assay, JDZ-buffer, 1 h 37°C [7]: 0.6 nM | fold increase of EC50 relative to generic H6tHAtev1V(2-94)LS [7]: 10 fold

B1: BoNT/F1 (recombinant, activated full-length) (enzyme)
chain: MPVVINSFNYNDPVNDDTILYMQIPYEEKSKKYYKAFEIMRNVWIIPERNTIGTDPSDFDPPASLENGSSAYYDPNYLTTDAEKDRYLKTTIKLFKRINSNPAGEVLLQEISYAKPYLGNEHTPINEFHPVTRTTSVNIKSSTNVKSSIILNLLVLGAGPDIFENSSYPVRKLMDSGGVYDPSNDGFGSINIVTFSPEYEYTFNDISGGYNSSTESFIADPAISLAHELIHALHGLYGARGVTYKETIKVKQAPLMIAEKPIRLEEFLTFGGQDLNIITSAMKEKIYNNLLANYEKIATRLSRVNSAPPEYDINEYKDYFQWKYGLDKNADGSYTVNENKFNEIYKKLYSFTEIDLANKFKVKCRNTYFIKYGFLKVPNLLDDDIYTVSEGFNIGNLAVNNRGQNIKLNPKIIDSIPDKGLVEKIVKFCKSVIPRKGTKAPPRLCIRVNNRELFFVASESSYNENDINTPKEIDDTTNLNNNYRNNLDEVILDYNSETIPQISNQTLNTLVQDDSYVPRYDSNGTSEIEEHNVVDLNVFFYLHAQKVPEGETNISLTSSIDTALSEESQVYTFFSSEFINTINKPVHAALFISWINQVIRDFTTEATQKSTFDKIADISLVVPYVGLALNIGNEVQKENFKEAFELLGAGILLEFVPELLIPTILVFTIKSFIGSSENKNKIIKAINNSLMERETKWKEIYSWIVSNWLTRINTQFNKRKEQMYQALQNQVDAIKTVIEYKYNNYTSDERNRLESEYNINNIREELNKKVSLAMENIERFITESSIFYLMKLINEAKVSKLREYDEGVKEYLLDYISEHRSILGNSVQELNDLVTSTLNNSIPFELSSYTNDKILILYFNKLYKKIKDNSILDMRYENNKFIDISGYGSNISINGDVYIYSTNRNQFGIYSSKPSEVNIAQNNDIIYNGRYQNFSISFWVRIPKYFNKVNLNNEYTIIDCIRNNNSGWKISLNYNKIIWTLQDTAGNNQKLVFNYTQMISISDYINKWIFVTITNNRLGNSRIYINGNLIDEKSISNLGDIHVSDNILFKIVGCNDTRYVGIRYFKVFDTELGKTEIETLYSDEPDPSILKDFWGNYLLYNKRYYLLNLLRTDKSITQNSNFLNINQQRGVYQKPNIFSNTRLYTGVEVIIRKNGSTDISNTDNFVRKNDLAYINVVDRDVEYRLYADISIAKPEKIIKLIRTSNSNNSLGQIIVMDSIGNNCTMNFQNNNGGNIGLLGFHSNNLVASSWYYNNIRKNTSSNGCFWSFISKEHGWQEN
EC50 of cleavage of generic substrate with reporter sfGFP, JDZ-buffer, 1 h 37°C [8]: 0.06 nM
